Results: PMC7036032 (Molecular cell, 2019)
Each block holds one binder with its values, some of them ahead of it.

Columns and labels:
[1] = biological target: T1, human CPSF160-WDR33 (1-572) complex (human, UniProt Q10570 1-1443; Q9C0J8 1-572); experiment: pull-down
[2] = biological target: T1, human CPSF160-WDR33 (1-572) complex; experiment: SEC
[3] = biological target: T1, human CPSF160-WDR33 (1-572) complex; experiment: cryo-EM structure

T1 sequence (Q10570 whole entry, chain 1 of 2): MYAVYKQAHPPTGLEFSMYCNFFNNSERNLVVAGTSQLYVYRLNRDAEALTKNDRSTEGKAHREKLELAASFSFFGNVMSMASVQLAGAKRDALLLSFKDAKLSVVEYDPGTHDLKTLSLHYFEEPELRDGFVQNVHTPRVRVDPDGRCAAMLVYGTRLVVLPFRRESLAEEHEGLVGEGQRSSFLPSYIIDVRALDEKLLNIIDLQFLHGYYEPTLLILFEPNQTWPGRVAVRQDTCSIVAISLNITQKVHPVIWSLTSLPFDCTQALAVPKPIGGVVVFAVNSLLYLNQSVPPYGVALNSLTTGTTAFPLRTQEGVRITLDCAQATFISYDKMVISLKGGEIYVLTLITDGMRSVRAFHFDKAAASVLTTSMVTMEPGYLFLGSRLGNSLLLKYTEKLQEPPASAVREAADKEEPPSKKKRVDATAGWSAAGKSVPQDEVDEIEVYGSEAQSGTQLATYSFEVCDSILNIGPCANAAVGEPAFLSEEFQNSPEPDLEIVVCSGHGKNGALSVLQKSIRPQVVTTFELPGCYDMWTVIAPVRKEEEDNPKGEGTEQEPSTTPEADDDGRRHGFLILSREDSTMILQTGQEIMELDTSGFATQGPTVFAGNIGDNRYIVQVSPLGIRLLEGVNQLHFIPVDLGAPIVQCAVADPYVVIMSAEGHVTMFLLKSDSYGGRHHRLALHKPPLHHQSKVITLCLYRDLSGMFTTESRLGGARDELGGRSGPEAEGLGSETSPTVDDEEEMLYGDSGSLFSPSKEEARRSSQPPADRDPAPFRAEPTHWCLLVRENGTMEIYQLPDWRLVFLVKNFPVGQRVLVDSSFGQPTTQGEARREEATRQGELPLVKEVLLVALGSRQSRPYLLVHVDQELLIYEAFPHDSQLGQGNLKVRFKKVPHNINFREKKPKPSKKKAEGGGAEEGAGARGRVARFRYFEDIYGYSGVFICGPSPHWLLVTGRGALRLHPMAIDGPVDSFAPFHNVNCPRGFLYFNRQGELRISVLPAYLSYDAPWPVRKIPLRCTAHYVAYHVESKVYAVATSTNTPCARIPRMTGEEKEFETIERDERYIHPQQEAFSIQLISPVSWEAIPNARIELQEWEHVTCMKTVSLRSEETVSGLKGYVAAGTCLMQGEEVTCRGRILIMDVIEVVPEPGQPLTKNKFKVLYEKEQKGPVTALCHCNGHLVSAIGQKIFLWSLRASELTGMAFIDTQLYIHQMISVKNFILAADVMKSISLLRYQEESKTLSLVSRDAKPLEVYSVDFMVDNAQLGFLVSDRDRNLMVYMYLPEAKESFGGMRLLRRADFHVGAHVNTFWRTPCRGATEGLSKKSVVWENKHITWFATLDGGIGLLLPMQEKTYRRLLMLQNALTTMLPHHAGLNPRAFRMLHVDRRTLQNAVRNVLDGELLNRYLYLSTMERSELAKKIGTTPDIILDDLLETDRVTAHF
T1 sequence (Q9C0J8 1-572, chain 2 of 2): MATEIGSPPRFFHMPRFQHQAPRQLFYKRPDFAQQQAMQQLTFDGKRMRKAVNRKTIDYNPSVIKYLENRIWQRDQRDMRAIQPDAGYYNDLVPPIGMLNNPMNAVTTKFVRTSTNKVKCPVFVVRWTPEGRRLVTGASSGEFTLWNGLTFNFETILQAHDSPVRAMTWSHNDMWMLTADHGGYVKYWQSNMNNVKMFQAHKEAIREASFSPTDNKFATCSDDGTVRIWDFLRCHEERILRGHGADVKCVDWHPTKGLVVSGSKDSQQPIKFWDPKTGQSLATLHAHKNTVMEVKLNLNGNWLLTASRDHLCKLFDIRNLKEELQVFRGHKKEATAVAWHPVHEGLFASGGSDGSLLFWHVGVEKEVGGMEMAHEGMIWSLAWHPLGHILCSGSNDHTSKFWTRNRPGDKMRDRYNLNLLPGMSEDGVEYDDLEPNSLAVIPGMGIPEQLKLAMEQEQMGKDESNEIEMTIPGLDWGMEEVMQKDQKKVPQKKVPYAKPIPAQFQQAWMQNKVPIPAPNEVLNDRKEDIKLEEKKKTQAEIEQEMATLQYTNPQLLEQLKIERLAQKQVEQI

binding result [1]: binds
B1: MBP-CPSF100 (full length) (natural protein, human, UniProt Q9P2I0 1-782, looked up)
chain: MTSIIKLTTLSGVQEESALCYLLQVDEFRFLLDCGWDEHFSMDIIDSLRKHVHQIDAVLLSHPDPLHLGALPYAVGKLGLNCAIYATIPVYKMGQMFMYDLYQSRHNTEDFTLFTLDDVDAAFDKIQQLKFSQIVNLKGKGHGLSITPLPAGHMIGGTIWKIVKDGEEEIVYAVDFNHKREIHLNGCSLEMLSRPSLLITDSFNATYVQPRRKQRDEQLLTNVLETLRGDGNVLIAVDTAGRVLELAQLLDQIWRTKDAGLGVYSLALLNNVSYNVVEFSKSQVEWMSDKLMRCFEDKRNNPFQFRHLSLCHGLSDLARVPSPKVVLASQPDLECGFSRDLFIQWCQDPKNSIILTYRTTPGTLARFLIDNPSEKITEIELRKRVKLEGKELEEYLEKEKLKKEAAKKLEQSKEADIDSSDESDIEEDIDQPSAHKTKHDLMMKGEGSRKGSFFKQAKKSYPMFPAPEERIKWDEYGEIIKPEDFLVPELQATEEEKSKLESGLTNGDEPMDQDLSDVPTKCISTTESIEIKARVTYIDYEGRSDGDSIKKIINQMKPRQLIIVHGPPEASQDLAECCRAFGGKDIKVYMPKLHETVDATSETHIYQVRLKDSLVSSLQFCKAKDAELAWIDGVLDMRVSKVDTGVILEEGELKDDGEDSEMQVEAPSDSSVIAQQKAMKSLFGDDEKETGEESEIIPTLEPLPPHEVPGHQSVFMNEPRLSDFKQVLLREGIQAEFVGGVLVCNNQVAVRRTETGRIGLEGCLCQDFYRIRDLLYEQYAIV

binding result [2]: binds
B2: human CPSF30-Fip1(1-243) complex (complex)
chain 1: MQEIIASVDHIKFDLEIAVEQQLGAQPLPFPGMDKSGAAVCEFFLKAACGKGGMCPFRHISGEKTVVCKHWLRGLCKKGDQCEFLHEYDMTKMPECYFYSKFGECSNKECPFLHIDPESKIKDCPWYDRGFCKHGPLCRHRHTRRVICVNYLVGFCPEGPSCKFMHPRFELPMGTTEQPPLPQQTQPPAKQRTPQVIGVMQSQNSSAGNRGPRPLEQVTCYKCGEKGHYANRCTKGHLAFLSGQ
chain 2: MSAGEVERLVSELSGGTGGDEEEEWLYGGPWDVHVHSDLAKDLDENEVERPEEENASANPPSGIEDETAENGVPKPKVTETEDDSDSDSDDDEDDVHVTIGDIKTGAPQYGSYGTAPVNLNIKTGGRVYGTTGTKVKGVDLDAPGSINGVPLLEVDLDSFEDKPWRKPGADLSDYFNYGFNEDTWKAYCEKQKRIRMGLEVIPVTSTTNKITAEDCTMEVTPGAEIQDGRFNLFKVQQGRTGN

binding result [3]: binds
B3: CPSF30 (isoform 2) (natural protein, human, UniProt O95639-2 1-244, looked up)
chain: B2 chain 1

binding result [1]: binds
Binder: SYPMFPAPEERIKWDEYGEIIKPEDFL (domain or fragment, human, UniProt Q9P2I0 460-486, looked up) [MBP-CPSF100 (460-486)]
